From paper PMC9237115 (2022)
Where two headings read alike, the source gives them in different places.

Key:
[1] = biological target: T1, Full-length human Tau (MAPT) (human, UniProt P10636-8 1-441)
[2] = biological target: Cdk2-phosphorylated Tau (PTau^Cdk2) (human, UniProt P10636-8 1-441, phosphorylated in vitro by Cdk2/CyA2, heterogeneously; LC-MS/MS confirmed phosphorylation of the AT8 (S202 and T205), AT180 (T231 and S235) and PHF1 (S396 and S404) epitopes; full list of sites in …); assay: Cdk2-phosphorylated Tau
Cdk2-phosphorylated Tau (PTau^Cdk2), sequence (P10636 other isoform, or with tags, fused parts or gaps): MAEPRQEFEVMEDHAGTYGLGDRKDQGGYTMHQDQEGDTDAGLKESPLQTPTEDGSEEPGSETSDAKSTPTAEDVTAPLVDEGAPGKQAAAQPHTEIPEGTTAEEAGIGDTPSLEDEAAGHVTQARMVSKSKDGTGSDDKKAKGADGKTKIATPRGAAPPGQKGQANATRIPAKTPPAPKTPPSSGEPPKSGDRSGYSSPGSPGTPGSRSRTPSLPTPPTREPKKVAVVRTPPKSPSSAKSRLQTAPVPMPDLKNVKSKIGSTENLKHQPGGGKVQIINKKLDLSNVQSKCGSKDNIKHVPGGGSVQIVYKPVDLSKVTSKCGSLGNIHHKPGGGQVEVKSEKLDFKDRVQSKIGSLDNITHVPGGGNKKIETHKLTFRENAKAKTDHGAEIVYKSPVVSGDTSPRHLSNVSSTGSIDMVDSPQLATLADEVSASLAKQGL

[3] = biological target: T1, Full-length human Tau (MAPT); assay: previously reported (ref 2)

T1 sequence (P10636 other isoform, or with tags, fused parts or gaps): as above

Kd [1]: 4.1 µM | Kd [2]: 27.9 µM | Kd [3]: 4.8 µM
B1: Hsp90 (HSP90AB1) (natural protein)
chain: not shown
